Experiments:
[1] = molecular target: the molecule itself; assay: Superose 12 gel filtration
From the text: N-terminal Deletion—The Del-8 mutant lacks the first 8 N-terminal amino acids of PlyCB but retains full binding activity. Formation of a stable octamer is confirmed by comparing the elution profile of the Del-8 PlyCB mutant on a Superose 12 gel to Bio-Rad gel filtration standards. Accordingly, the N-terminal region can be completely deleted and not affect formation of the stable octamer. Given the non-structural role of this sequence, this region can be modified or engineered.

[2] = molecular target: T1, PlyCA (heavy chain of the streptococcal C1 bacteriophage lysin PlyC) (streptococcal C1 bacteriophage, UniProt Q7Y3F1 2-465); assay: native PAGE against SDS/PAGE (two bands, PlyCA and PlyCB); N-terminal sequencing of the native band gives both chains
T1 construct: One PlyCA for eight PlyCB in the holoenzyme (about 114 kDa by gel filtration); also called PlyC heavy chain; plyCA gene product
T1 sequence (looked up): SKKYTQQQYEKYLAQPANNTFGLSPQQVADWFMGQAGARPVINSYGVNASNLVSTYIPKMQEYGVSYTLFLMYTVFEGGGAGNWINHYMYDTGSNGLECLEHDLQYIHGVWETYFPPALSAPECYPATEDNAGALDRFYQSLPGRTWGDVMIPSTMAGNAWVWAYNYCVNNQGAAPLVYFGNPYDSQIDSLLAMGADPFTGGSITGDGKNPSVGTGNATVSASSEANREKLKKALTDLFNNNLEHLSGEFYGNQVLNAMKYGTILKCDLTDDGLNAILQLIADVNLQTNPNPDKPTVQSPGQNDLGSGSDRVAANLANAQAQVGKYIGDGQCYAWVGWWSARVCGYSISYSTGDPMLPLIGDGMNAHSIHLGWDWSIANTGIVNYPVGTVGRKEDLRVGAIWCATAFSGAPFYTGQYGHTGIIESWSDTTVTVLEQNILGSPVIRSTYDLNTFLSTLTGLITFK
From the text: PlyC Consists of a Heavy Chain (PlyCA) and a Light Chain (PlyCB)—PlyC purified from C₁ bacteriophage lysates behaves as a homogeneous protein on native-gel electrophoresis (FIG. 1A). Moreover, this protein band is responsible for the lytic activity, as observed by formation of a clearing zone on an overlay of streptococci-embedded agarose (FIG. 1B). […] N-terminal sequencing of the PlyC heavy and light chains results in two unique sequences ([…] and […], respectively), and sequencing of the native band results in a dual sequence, which corresponds exactly to both chains.
Expression and Purification of the PlyC Clone—PlyC is induced with 0.5% arabinose overnight from XL1-blue/pBAD24::plyC cultures. Cells are washed in 20 mM phosphate buffer at pH 7.0 and are lysed with 20% wt/vol chloroform to yield crude PlyC. Alternatively, group C streptococci are infected with the C1 bacteriophage as previously described (Nelson et al., 2001), and phage-produced PlyC are isolated from the crude lysate. Purification of the phage-derived enzyme and the recombinant enzyme are identical to previously described methods (Nelson et al., 2001). Purified enzymes are routinely stored in PBS at 4° C. and are stable for several months. Purification of the individually expressed heavy and light chains use the same column-chromatography methods as the native enzyme. […]

[3] = molecular target: the molecule itself; assay: gel filtration, with and without 0.1% SDS

B1: Del-8 PlyCB mutant (8 amino acid N-terminal deletion of PlyCB), monomer (other)
chain: NVSGVQGFLFHTDGKESYGYRAFINGVEIGIKDIETVQGFQQIIPSINISKSDVEAIRKAMKK
notes: Monomer, used for the entry on self-assembly into the octamer; also called N-terminal deletion variant of PlyCB
Question: Does B1 bind [1]?
Answer: Result: binds

B2: PlyCB octamer (wild-type) (other)
chain: SKINVNVENVSGVQGFLFHTDGKESYGYRAFINGVEIGIKDIETVQGFQQIIPSINISKSDVEAIRKAMKK
notes: Ring of eight identical PlyCB monomers, about 64 kDa; the partner of PlyCA in the PlyC holoenzyme; also called octameric protein
Question: Does B2 bind [2]?
Answer: Result: binds

B3: PlyCB monomer (wild-type, light chain of the streptococcal C1 bacteriophage lysin PlyC) (other)
chain: SKINVNVENVSGVQGFLFHTDGKESYGYRAFINGVEIGIKDIETVQGFQQIIPSINISKSDVEAIRKAMKK
notes: also called PlyC light chain; plyCB gene product
Question: Does B3 bind [3]?
Answer: Result: binds

Source: patent publication US20090092555A1 (published 2009)
